B1: CER104: Tim4 binding and transmembrane domains, TLR8 primary and DAP12 secondary signaling domains; SEQ ID NO:133 (protein)
chain: MSKGLLLLWLVTELWWLYLTPAASEDTIIGFLGQPVTLPCHYLSWSQSRNSMCWGKGSCPNSKCNAELLRTDGTRIISRKSTKYTLLGKVQFGEVSLTISNTNRGDSGVYCCRIEVPGWFNDVKKNVRLELRRATTTKKPTTTTRPTTTPYVTTTTPELLPTTVMTTSVLPTTTPPQTLATTAFSTAVTTCPSTTPGSFSQETTKGSAFTTESETLPASNHSQRSMMTISTDIAVLRPTGSNPGILPSTSQLTTQKTTLTTSESLQKTTKSHQINSRQTILIIACCVGFVLMVLLFLAFLHHLFYWDVWFIYNVCLAKVKGYRSLSTSQTFYDAYISYDTKDASVTDWVINELRYHLEESRDKNVLLCLEERDWDPGLAIIDNLMQSINQSKKTVFVLTKKYAKSWNFKTAFYLALQRLMDENMDVIIFILLEPVLQHSQYLRLRQRICKSSILQWPDNPKAEGLFWQTLRNVVLTENDSRYNNMYVDSIKQYYFLGRLVPRGRGAAEAATRKQRITETESPYQELQGQRSDVYSDLNTQRPYYK
modifications: CER104 protein
B2: CER21: Tim4 binding and transmembrane domains, TLR8 signaling domain; SEQ ID NO:88 (protein)
chain: MSKGLLLLWLVTELWWLYLTPAASEDTIIGFLGQPVTLPCHYLSWSQSRNSMCWGKGSCPNSKCNAELLRTDGTRIISRKSTKYTLLGKVQFGEVSLTISNTNRGDSGVYCCRIEVPGWFNDVKKNVRLELRRATTTKKPTTTTRPTTTPYVTTTTPELLPTTVMTTSVLPTTTPPQTLATTAFSTAVTTCPSTTPGSFSQETTKGSAFTTESETLPASNHSQRSMMTISTDIAVLRPTGSNPGILPSTSQLTTQKTTLTTSESLQKTTKSHQINSRQTILIIACCVGFVLMVLLFLAFLHHLFYWDVWFIYNVCLAKVKGYRSLSTSQTFYDAYISYDTKDASVTDWVINELRYHLEESRDKNVLLCLEERDWDPGLAIIDNLMQSINQSKKTVFVLTKKYAKSWNFKTAFYLALQRLMDENMDVIIFILLEPVLQHSQYLRLRQRICKSSILQWPDNPKAEGLFWQTLRNVVLTENDSRYNNMYVDSIKQY
modifications: CER21 chimeric engulfment receptor

Key:
[1] = test system: CER-transduced CD4+ T cells; test: Mass cytometry (CyTOF) with viSNE marker analysis of CER-transduced CD4+ T cells; assay type: cell-based, human
Excerpt: CD4+ T cells were transduced with lentiviral vector comprising CER104, CER116, or CER117 nucleic acid. CER104 (SEQ ID NO:133) comprises a Tim4 binding domain, Tim4 transmembrane domain, and an engulfment signaling domain comprising a primary engulfment signaling domain comprising a TLR8 signaling domain and a secondary engulfment signaling domain comprising a DAP12 signaling domain. CER116 (SEQ ID NO:143) comprises a Tim4 binding domain, Tim4 transmembrane domain, and an engulfment signaling domain comprising a primary engulfment signaling domain comprising a TRAF6 signaling domain and a secondary engulfment signaling domain comprising a TLR8 signaling domain. CER117 (SEQ ID NO:144) comprises a Tim4 binding domain, Tim4 transmembrane domain, and an engulfment signaling domain comprising a primary engulfment signaling domain comprising a TLR8 signaling domain and a secondary engulfment signaling domain comprising a TRAF6 signaling domain. CER-transduced CD4+ T cells were co-cultured with E7 TCR-transduced CD8+ T cells and HPV+SCC152 target cells and interrogated by mass cytometry (CyTOF) with viSNE for visualization of high dimensional single cell data (FIGS. 82-84). Intact CER-transduced CD4+ T cells are shown in plots displaying tSNE1 (horizontal) and tSNE2 (vertical) axes. 27 intracellular markers were used for the viSNE analysis. Each dot represents a single cell. […] Red represents high expression and blue represents low expression for each marker. Populations of CD4^+ T cells were generated using a clustering algorithm from all 27 markers and overlaid onto the viSNE map. […] Populations of CD4^+ T cells were generated using a clustering algorithm from all 18 markers and overlaid onto the viSNE map (FIG. 83A). […] Color plots by 18 intracellular markers (CD28, CCR7, CD45RA, PD1, CD127, Perforin, CD49d, CD85j, CD38, CD27, Granzyme B, CD57, CD25, CD69, CD154, CD56, HLA-DR, and TCRγδ) show the phenotype across viSNE ‘islands’ (FIG. 83B). Red represents high expression and blue represents low expression for each marker. Highlighted region with arrow indicates cells expressing T cell activation marker CD69. Populations of CD4^+ T cells were generated using a clustering algorithm from 18 intracellular markers (CD28, CCR7, CD45RA, PD1, CD127, Perforin, CD49d, CD85j, CD38, CD27, Granzyme B, CD57, CD25, CD69, CD154, CD56, HLA-DR, and TCRγ6) and overlaid onto the viSNE map. […] Color plots by the 18 intracellular markers show the phenotype across viSNE ‘islands’ (FIG. 84B). Red represents high expression and blue represents low expression for each marker. Highlighted region with arrow indicates cells expressing the naïve T cell marker CD45RA.

[2] = test system: staurosporine treated Jurkat cells; test: Phagocytosis and cytolysis of staurosporine treated Jurkat cells by CER21+ human primary B cells; assay type: cell-based
Protocol: One day prior to setting up the phagocytosis assay, Jurkat human B lymphocytes were cultured in complete RPMI 1640 growth media supplemented with 10% fetal bovine serum and 1% penicillin-streptomycin in a 6 well plate and treated with 1 mM staurosporine for three hours to induce apoptosis. Jurkat cells were washed twice in lx PBS to remove excess staurosporine and then stained with pHrodo Red (1 ng/μ.1 in PBS) for 15 minutes at room temperature. The Jurkat cells were supplemented with growth media, washed once to remove excess pHrodo Red, and plated on flat bottom 96 well plates at approximately 250,000 cells/well in RPMI 1640 complete media.
Transduced CER21+ human primary B cells were washed once with 1×PBS and stained with 1 μM CELLTRACE Violet in PBS for 10 minutes at 37° C. The CER21+ human primary B cells were supplemented with growth media, washed once with 1×PBS to remove excess CELLTRACE Violet, and plated onto 96 well plate at approximately 50,000 cells/well in RPMI 1640 complete media. Human CER21+primary B cells and Jurkat cells were co-cultured at a target cell to effector cell ratio of 5:1 at 37° C. for 3 hours. After incubation, the co-culture plate was then centrifuged, and the media replaced with PBS supplemented with 2% fetal bovine serum, pH 9. Phagocytic events were quantified by fluorescent microscopy (KEYENCE BZ-X710 fluorescence microscope, 20X objective). […] Solid arrows show engulfment activity. Dashed arrows show cytolytic activity.
Apoptotic cells were quantified from fluorescent images using automated software, and the number of apoptotic cells per high power view (FIG. 20A) and total fluorescence emission per high power view (FIG. 20B) were calculated using pH indicator dye.

[3] = test system: H1703 non-small cell lung cancer cells; test: Killing of paclitaxel treated H1703 cells by CER21+ human primary B cells; assay type: cell-based; conditions: Paclitaxel 30 μM, target:effector 5:1, 3 hours, vs EGFRt B cells
Protocol: Human primary B cells were transduced with pLenti Tim4-TLR8 (CER21) lentivirus expressing truncated EGFR as a transduction marker and stained with CELLTRACE Violet as described in Example 1. One day prior to setting up a co-culture assay, H1703 non-small cell lung cancer cells were incubated with phosphatidylserine inducing chemotherapy Paclitaxel (30 μM) in serum-free media for 24 hours. Floating and adherent H1703 cells were collected, centrifuged, incubated with pHrodo red (1 ng/μL) for 15 minutes at room temperature in PBS, washed, and then plated in a non-adherent 96 well plate. Human CER21+ B cells and H1703 cells were co-cultured at a target cell to effector cell ratio of 5:1 at 37° C. for 3 hours. B cells transduced with truncated EGFR were used as control. The plate was then imaged using a 20X objective, Keyence BZ-X710 microscope (FIG. 21). Cells undergoing apoptosis show increasing Red fluorescence as the intracellular pH drops in the earliest stages of apoptosis (FIG. 21, top row). Adjacent cells not induced by Paclitaxel treatment remain only dimly fluorescent. Apoptotic measurements in the presence of CER21+ B cells were quantified as the Area under the Curve of red fluorescent objects and outlined in blue using automated software (FIG. 21, bottom row; FIG. 22), for each high powered field. White arrows show apoptosis events.

[4] = human primary B cells, target:effector 5:1, 3 hours

Row | Molecule | memory formation after antigen encounter ([1]; CD4+ T cells) | viSNE islands expressing T cell activation marker CD69 ([1]; CD4+ T cells after antigen encounter) | viSNE islands expressing intracellular marker IFNγ ([1]; CD4+ T cells after co-culture with E7 TCR CD8+ T cells and SCC152 cells) | viSNE islands expressing naïve T cell marker CD45RA within the CCR7+ population ([1]; compared to controls) | in vitro cytolysis of engulfed Jurkat cells [2, 4] | in vitro phagocytosis of Jurkat cells [2, 4] | killing of target cells (apoptotic cells and fluorescence per high power view) ([2]; staurosporine treated (subtherapeutic dose) Jurkat cells) | killing of paclitaxel treated H1703 cells (apoptotic object area) [3]
1 | B1 | associated with memory formation after antigen encounter | enrichment of islands expressing the T cell activation marker CD69 | enrichment of islands expressing the intracellular marker IFNγ | loss of islands expressing the naïve T cell marker CD45RA |  |  |  | 
2 | B2 |  |  |  |  | in vitro cytolysis of Jurkat cells | in vitro phagocytosis | enhanced killing of target cells | enhance killing of target cells at sub-therapeutic dose of chemotherapy
